Data as given in article PMC5798343.

Columns and labels:
Test in all cases: SEC
[1] = molecular target: ΔNp63α R279H in the V603D background
[2] = molecular target: ΔNp63α R304Q/V603D
[3] = molecular target: ΔNp63α V603D

Substance “ΔNp63α R279H in the V603D background (natural protein)” has a stoichiometry N [1] of 4.
For ΔNp63α R304Q/V603D (natural protein), the stoichiometry N [2] was 4.
Substance ΔNp63α V603D (natural protein) has a stoichiometry N [3] of 4.
